Assay results from patent US20190083619A1, “METHODS AND COMPOSITIONS FOR REMOVING, REDUCING, DISPERSING, DISRUPTING OR ERADICATING BIOFILMS AND DETERMINING THE NUMBER OF BACTERIAL POPULATION IN BIOFILM OR A CULTURE CONTAINING BACTERIAL AGGREGATE” (INSTITUTE OF MICROBIOLOGY, CHINESE ACADEMY OF SCIENCES, priority 2017, published 2019).

What was measured:
ΔpaaP strain = experiment: MIC by E test strips; format: cell-based, P. aeruginosa; conditions: E test strip, 37° C. overnight; FIG. 9A
Method: The MIC (minimum inhibition concentration) of ΔpaaP strain to tobramycin and ciprofloxacin, two antibiotics commonly used to treat P. aeruginosa infections, was tested by E test strips. Overnight culture was diluted to OD600˜0.1, and spread on the plate. The E test strip was put onto the plate, cultivated at 37° C. overnight, and the minimum inhibition concentration was recorded according to the E test strip.

[1] = tested on: psl transcription in PAO1; experiment: psl transcription detected by psl::gfp reporter plasmid; format: cell-based, P. aeruginosa; conditions: 5 μM C12-HSL added to PAO1 culture; FIG. 3E
Psl production in PAO1 = experiment: Psl production by anti-Psl immunodot blotting; format: cell-based, P. aeruginosa; conditions: 5 μM C12-HSL added to culture medium; FIG. 3D
Method: To examine Psl production, exopolysaccharide Psl extracts were collected from overnight cultures equivalent to approximately 10 OD600 and examined by immunodot blotting using an anti-Psi antibody. For the effect of C12-HSL on Psl production, 5 μM C12-HSL was added to the medium after inoculation. The software Image Lab™ was used to quantify the immunodot blotting data.
LasI directs the synthesis of the QS signal molecular, N-(3-oxododecanoyl)-L-homoserine lactone (C12-HSL). Thus, whether C12-HSL supplement could affect Psl production in PAO1 was examined. […] C12-HSL is usually associated with the transcriptional regulator LasR to active their target genes.

[2] = target: T1, (2S,3R)-3-Amino-2-hydroxy-5-methylhexanoyl-Val-Val-Asp (Amastatin)
T1 chain: VVD

PAO1 biofilms = experiment: Dispersal of air-liquid interface biofilms and live cell counting by CFU; format: cell-based, P. aeruginosa; conditions: 50 nM PslG, 30° C., 1 h, versus tissue homogenate and control; FIG. 14
Method: The PAO1 strain was inoculated on LBNS solid medium plates and overnight incubated at 37° C. Then monoclones of the PAO1, collected from the LBNS solid medium plates, were inoculated in LBNS liquid medium and incubated at 37° C. overnight with shaking at 200 rpm. The culture was washed with PBS for once. Then the culture was inoculated in Jensen's liquid medium at 1:100 (V:V), and incubated at 30° C. in a 24-pore plate. Biofilms were formed at the air-liquid interface. The liquid under the biofilms was removed by a pipettor. The biofilms were washed with PBS for twice so as to remove free bacterial cells that are not embedded in the biofilms. The biofilms were added in PBS for subsequent treatment. For a tissue homogenate treatment group, a sterile glass homogenizer (1 mL) was used to homogenize the biofilms for three times. For PslG treatment group, PslG was added to the biofilms, and the final concentration of PslG is 50 nM. The biofilms were incubated at 30° C. for 1 h. For a control group, no treatment was performed on the biofilms at this stage. Afterwards, the biofilm samples from the tissue homogenate treatment group, the PslG treatment group, and the control group were homogenized using a pipette and then votexed. The biofilm samples were diluted in PBS at 1:10. […] The numbers of live cells in the biofilm samples was determined based on the CFUs.

[3] = In vitro treatment of Psl extract, elution profile on Sephadex G-50 column; format: biochemical, P. aeruginosa; conditions: exogenous-supplied PslG in vitro; FIG. 8B
Method: The Psl extract from biofilm was prepared, fractionated on a Sephadex G-50 column, and irrigated with water at 0.67 ml/min. The total carbohydrate in each fraction (5 ml) was assayed colorimetrically for aldose. Briefly, 200 μl of each fraction was mixed with 100 μl 5% phenol and 500 μl concentrated sulfuric acid, reacted at room temperature for 30 minutes, and measured (OD492).
To confirm, the Psl extracted from PAO1 biofilms was treated with exogenous-supplied PslG in vitro.

MJK8 = experiment: Dispersal of bacterial aggregates in liquid culture, OD600 read; format: cell-based, P. aeruginosa; conditions: 100 nM PslG, Jensen's or LBNS medium, 3 h and 6 h; FIG. 13A, 13B
Method: (§1) PAO1-derived rugose small colony variant (RSCV) strain MJK8 was grown in LBNS at 37° C. 200 rpm overnight. This overnight culture was washed and then inoculated into Jensen's medium or in LBNS medium at 1:50 with or without 100 nM of PslG. Bacterial growth was determined by taking OD600 read at 3 h and 6 h post inoculation. P. stutzeri strain A1501 was firstly grown in LD medium at 30° C. 200 rpm overnight. The overnight culture was washed and inoculated into KLG^+ medium at 1:50 with or without 100 nM of PslG. OD600 was taken at 3 h, 6 h and 30 h post inoculation to monitor the bacterial growth. FIGS. 13A-13C show the comparison of OD600 read with or without PslG treatment of: MJK8 growth in chemically defined Jensen's medium (FIG. 13A); MJK8 growth in LBNS rich medium (FIG. 13B); A1501 growth in KLG^+ medium (FIG. 13C).

A1501 = experiment: as above; format: cell-based, P. stutzeri; conditions: 100 nM PslG, KLG+ medium, 3 h, 6 h, 30 h; FIG. 13C
Method: as §1

## O=C(O)c1cn(C2CC2)c2cc(N3CCNCC3)c(F)cc2c1=O [ciprofloxacin]
ΔpaaP strain
  MIC of ΔpaaP, fold lower than PAO1: 8 fold

## CCCCCCCCCC(=O)CC(=O)N[C@H]1CCOC1=O [C12-HSL, N-(3-oxododecanoyl)-L-homoserine lactone]
[1]
  effect on psl transcription: psl transcription was enhanced
Psl production in PAO1
  effect on Psl production: did increase Psl production in PAO1

B1: P. aeruginosa aminopeptidase (PaAP) (protein)
chain: APSEAQQFTEFWTPGKPNPSICKSPLLVSTPLGLPRCLQASNVVKRLQKLEDIASLNDGNRAAATPGYQASVDYVKQTLQKAGYKVSVQPFPFTAYYPKGPGSLSATVPQPVTYEWEKDFTYLSQTEAGDVTAKVVPVDLSLGAGNTSTSGCEAEDFANFPAGSIALIQRGTCNFEQKAENAAAAGAAGVIIFNQGNTDDRKGLENVTVGESYEGGIPVIFATYDNGVAWSQTPDLQLHLVVDVVRKKTETYNVVAETRRGNPNNVVMVGAHLDSVFEGPGINDNGSGSAAQLEMAVLLAKALPVNKVRFAWWGAEEAGLVGSTHYVQNLAPEEKKKIKAYLNFDMIGSPNFGNFIYDGDGSDFGLQGPPGSAAIERLFEAYFRLRGQQSEGTEIDFRSDYAEFFNSGIAFGGLFTGAEGLKTEEQAQKYGGTAGKAYDECYHSKCDGIANINQDALEIHSDAMAFVTSWLSLSTKVVDDEIAAAGQKAQSRSLQMQKSASQIERWGHDFIK
[2]
  PaAP catalytic activity (hydrolysis of Leu-p-nitroanilide, 7 nM PaAP with 10, 20, 30 µM Amastatin or without): the Amastatin may inhibit the enzyme activity of PaAP at micromolar concentrations, and the inhibition effect may increase with higher concentration of Amastatin

B2: PslG: glycosyl hydrolase of P. aeruginosa that degrades the Psl exopolysaccharide matrix; amino acid sequence SEQ ID NO: 6 (protein)
chain: EIQVLKAPRAVVWKDFLGVNAQFLWFSPERYNKQIDRLQDLGLEWVRLDLHWDRLETAEDQYQLASLDQLVKDLEARQLKSVFYLVGSARFITTAPFYSPFQDQYPPRDPEVFARRMAMLSQRYPSVAAWQVWNEPNLIGFWRPKADPEGYAKLLQASTIALRMVDPEKPVVSAGMAFFSEMPDGRTMFDALGHLGVESLGTIATYHPYTQLPEGNYPWNLDFVSHANQINRALRNAGVPAIWSTEWGWSAYKGPKELQDIIGVEGQADYVLRRLALMSALDYDRIFLFTLSDLDQRASVRDRDYGLLDLDANPKPVYLALQRFLKVTGPKLRPADPPVTEDLPDGSFSIGWTREDGRNVWLFWSARGGNVRLPKLKEATLHDPLSGKVTPLSGSDGLEVPVKSSLQMLVWE
PAO1 biofilms
  number of detected CFUs for treated biofilms: significantly greater than the number of detected CFUs for the biofilms treated by tissue homogenate, and the biofilms in the control group
[3]
  elution profile of PslG-degraded Psl: showed a very similar profile as Psl extracted from the ΔpaaP biofilm
MJK8
  dispersal of flocs in liquid culture: can disperse the flocs of MJK8 and A1501 in liquid culture
A1501
  dispersal of flocs in liquid culture: can disperse the flocs of MJK8 and A1501 in liquid culture
